Data on three molecules can be found in patent US7524646B2 (priority 2001, dated 2009).

The test system of data set [1] is strains bearing thyA:Val146 alleles. As to the kind of experiment: Cysteine suppression of thyA:Val146 alleles on gradient plates. The format is cell-based, E. coli. To be noted: gradient starting at 100 mM L-cysteine, no thymidine. The procedure:
[…] Ile-Val (0.3 mM) was added in one plate as a control. The dipeptide Ile-Val was purchased from Bachem A G (Bubendorf, Switzerland). Plates were incubated for 2 days at 30° C.
We took advantage of the thyA conditional selection screen in E. coli, based on the absolute requirement for an active thymidylate synthase when thymidine is not provided as a growth factor (13). This same screen was used previously to assess the potency of suppressor Cys-tRNAs in codon misreading (14) and to enforce phenotypic suppression by the non-canonical azaleucine (15). An entire set of plasmid-borne thyA alleles with all 64 different codons at position 146 was constructed for altering the catalytic site occupied by an essential Cys (16, 17). Each allele was tested for its ability to restore growth to an E. coli strain (lacking the chromosomal copy of thyA) on mineral glucose medium in the absence of thymidine (14, 15). Three of the 64 plasmid-borne thyA alleles restored growth. These had one of three codons-UGU, UGC, or UGA. The growth responses of the UGU and UGC alleles were expected, as these code for cysteine.
Shallow growth was reproducibly observed on L-cysteine gradient plates (18) for the missense alleles having any of the eight codons AUN and GUN alone. […]

In data set [2] the test system is parent strain β5419. As to the kind of experiment: Growth of parent strain in the presence of L-threonine. It is filed as cell-based, E. coli. To be noted: all concentrations. Here is the method:
(§1) FIG. 1C: Photographs showing the results of growth of a strain carrying the valS:T222P allele in the presence of L-threonine or Abu. Minimal medium plates supplemented with thymidine (0.3 mM) were pretreated with amino acid solutions by streaking either with Thr (50 μl (0.2 M)) or Abu (50 μl (0.1 M)) vertically along the diameter of the plate to create an amino acid gradient. Mutant (β5456) and wild-type (β5419 (thyA::erm+ ΔnrdD::kan+ pTS13 (bla+ thyA: 146GUA)) strains were then streaked horizontally across the plates and incubated for 2 days at 37° C.
(§2) ValRS is known to misactivate Thr and generate Thr-tRNA^Val, which normally is hydrolyzed by the ValRS editing activity (9). If the ValRS mutants in Table 1 are impared for editing, then strains bearing each of these mutations should misincoporate Thr into protein, and L-threonine would then be toxic in these strains. The growth of the five different valS strains was therefore tested in the presence of L-threonine.

For data set [3], the system named is five different valS strains (editing mutants). It is filed as cell-based, E. coli. To be noted: at 2 mM. Here is the method: as §1, §2
The test system of data set [4] is tRNA^Val. The experiment in a line: Aminoacylation of tRNAVal with Val. The format is biochemical, E. coli. The following applies: pH 7.5, 37° C. The procedure:
(§3) FIG. 2B: A graph showing misaminoacylation of tRNA^Val with Thr by the T222P mutant enzyme at pH 7.5 and 37° C. The wild-type (WT) and mutant alleles were cloned under the control of a PBAD promoter (30). The enzymes were partially purified from a laboratory strain lacking the chromosomal copy of the valS gene (ΔvalS::kan+). The purification and aminoacylation procedures were adapted from Hendrickson et al. (31). (Main panel) Misaminoacylation of tRNA^Val with Thr by the two enzymes. (Inset) Aminoacylation of tRNA^Val with Val by the two enzymes.
(§4) Aminoaclyation Assay, Misacylation, and Deacylation: Aminoacylation assays were performed at 37 C. in a 100 uL volume containing buffer (20 mM HEPES, 0.1 mM EDTA disodium salt, 0.15M NH4Cl, 10 ug/mL BSA pH 7.5), […] MgCl2, 0.7 μM [^3H]Val, 20 μM cold Val, 2 μM tRNAval (Sigma) and 20 nM ValRS enzyme (adapted from Hendrickson et al. 2000). Aliquots (10 μL) of the reaction mixture were precipitated with tricholoracetic acid, and the level of aminoacylation of the tRNA was determined by scintillation counting.

Data set [5] has as its system tRNA^Val. As to the kind of experiment: Misacylation of tRNAVal with cysteine. It is filed as biochemical, E. coli. From the text: The T222P mutant enzyme was, therefore, expressed and partially purified so that it could be directly assayed for the ability to misacylate tRNA^Val.
In data set [6] the test system is tRNA^Val. As to the kind of experiment: Misacylation of tRNAVal with Thr. The format is biochemical, E. coli. The following applies: pH 7.5, 37° C. Here is the method:
as §3, §4
(§5) Misacylation of Thr onto tRNAval was performed in the same conditions except 5.86 μM [^3H]Thr was substituted forVal in the reaction. To test deacylation rates for these enzymes it was necessary to generate [^3H]Thr-tRNAval. […] Enzyme was incubated with 2.5 μM tRNAval and 45 uM [^3H]Thr, incubated at 37 C. for 45 minutes, extracted twice in phenol:chloroform, and ethanol precipitated. Pellet was dissolved in 100 μL sterile H2O and scintillation counting was used to determine the success of the reaction. Deacylation reactions, done in triplicate for each enzyme, were performed in 155 mM Tris-HCl (pH 7.5), 100 μg/ml BSA, 10 mM MgCl2. At room temperature 2 nM enzyme was combined with [^3H]Thr-tRNAval, at 3, 6, 9, 16, and 30 minutes aliquots (9 μL) of the reaction mixture were precipitated with tricholoracetic acid, and the amount of misaminoacylated [^3H]Thr-tRNAval remaining in the sample was determined by scintillation counting. A no enzyme control reaction was included to provide reference point.

Data set [7] deals with [^3H]Thr-tRNAval. The experiment in a line: Deacylation of mischarged Thr-tRNAVal by ValRS enzymes. The following applies: 2 nM enzyme, room temperature. It is filed as biochemical, E. coli. The procedure:
FIG. 5B: Histogram representation of the inhibition zone diameters of DvalS::kanR strains harboring each of the ValRS editing mutants on plasmid in response to exogenous Abu. Effects range from mild to severe. Histogram representation of the percentage of mischarged Thr-tRNAVal remaining after incubation with 2 nM enzyme for 15 minutes at room temperature. Both show a distinct range in the severity of editing defects caused by these point mutations. Taken together this illustrates a correlation between the ability of the mutant enzyme to deacylate mischarged amino acids from tRNAVal in vitro and the degree of in vivo toxicity.
as §5

Entries after “also recorded” stand apart in the source; their conditions may differ.

In the case of `N[C@@H](CS)C(=O)O` [L-cysteine], in data set [1], the “suppression of thyA:Val146 alleles” value is given as “weak”.

With `C[C@@H](O)[C@H](N)C(=O)O` [L-threonine], the “sensitivity of growth to exogenous L-threonine” value was “insensitive” in data set [2] and “high sensitivity” in data set [3].

B1: T222P (protein, UniProt P07118 1-951, looked up, variant T222P)
Valine--tRNA ligase: MEKTYNPQDIEQPLYEHWEKQGYFKPNGDESQESFCIMIPPPNVTGSLHMGHAFQQTIMDTMIRYQRMQGKNTLWQVGTDHAGIATQMVVERKIAAEEGKTRHDYGREAFIDKIWEWKAESGGTITRQMRRLGNSVDWERERFTMDEGLSNAVKEVFVRLYKEDLIYRGKRLVNWDPKLRTAISDLEVENRESKGSMWHIRYPLADGAKTADGKDYLVVATPRPETLLGDTGVAVNPEDPRYKDLIGKYVILPLVNRRIPIVGDEHADMEKGTGCVKITPAHDFNDYEVGKRHALPMINILTFDGDIRESAQVFDTKGNESDVYSSEIPAEFQKLERFAARKAVVAAVDALGLLEEIKPHDLTVPYGDRGGVVIEPMLTDQWYVRADVLAKPAVEAVENGDIQFVPKQYENMYFSWMRDIQDWCISRQLWWGHRIPAWYDEAGNVYVGRNEDEVRKENNLGADVVLRQDEDVLDTWFSSALWTFSTLGWPENTDALRQFHPTSVMVSGFDIIFFWIARMIMMTMHFIKDENGKPQVPFHTVYMTGLIRDDEGQKMSKSKGNVIDPLDMVDGISLPELLEKRTGNMMQPQLADKIRKRTEKQFPNGIEPHGTDALRFTLAALASTGRDINWDMKRLEGYRNFCNKLWNASRFVLMNTEGQDCGFNGGEMTLSLADRWILAEFNQTIKAYREALDSFRFDIAAGILYEFTWNQFCDWYLELTKPVMNGGTEAELRGTRHTLVTVLEGLLRLAHPIIPFITETIWQRVKVLCGITADTIMLQPFPQYDASQVDEAALADTEWLKQAIVAVRNIRAEMNIAPGKPLELLLRGCSADAERRVNENRGFLQTLARLESITVLPADDKGPVSVTKIIDGAELLIPMAGLINKEDELARLAKEVAKIEGEISRIENKLANEGFVARAPEAVIAKEREKLEGYAEAKAKLIEQQAVIAAL
On to B1, for which the “activity for charging tRNA^Val with valine” value in data set [4] was “same activity as the wild-type enzyme”. In addition, in data set [5], the “misacylation of tRNA^Val with cysteine” value is recorded as “catalyzed only by the mutant enzyme”. Besides, the “misacylation of tRNA^Val with Thr” value in data set [6] was “high levels of mischarged Thr-tRNA^Val; also recorded: misacylated tRNA^Val with Thr”. Further, the “deacylation of Thr-tRNA^Val in vitro” value in data set [7] is given as “most severe defects”.
